# Values quoted from earlier work as cited in PMC7246992.
# Like-named read-outs stand apart in the source and are kept apart here.
# Assays:
# [1] = molecular target: linear ubiquitin (Homo sapiens) (UniProt P0CG48)
# [2] = molecular target: linear ubiquitin (Homo sapiens) (UniProt P0CG48); remark: listed apart in the source
# Sequence of optineurin UBAN (Q96CV9 416-510): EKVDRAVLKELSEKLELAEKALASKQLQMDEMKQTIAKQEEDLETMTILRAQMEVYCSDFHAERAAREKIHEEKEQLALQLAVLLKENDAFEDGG
# Sequence of A20 ZF7 (P21580 756-790): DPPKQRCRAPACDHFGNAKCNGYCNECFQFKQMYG
substance,measurement,setting,value
A20 ZF7 (from UniProt P21580),Kd,[1],9 µM
optineurin UBAN (from UniProt Q96CV9),Kd,[2],1 µM
